Data on 16 molecules can be found in PMC9478924 (The Journal of Biological Chemistry, 2022).

T1: EVA-4 (UniProt P0C8E9 24-127, biotin on the Avi-tag (Bir-A ligase))
T1 sequence (looked up): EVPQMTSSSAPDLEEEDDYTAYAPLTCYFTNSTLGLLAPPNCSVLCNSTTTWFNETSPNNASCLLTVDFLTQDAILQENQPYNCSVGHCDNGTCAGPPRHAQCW

T2: EVA-P974 (UniProt A0A023FDY8 22-118, biotin on the Avi-tag (Bir-A ligase))
T2 sequence (looked up): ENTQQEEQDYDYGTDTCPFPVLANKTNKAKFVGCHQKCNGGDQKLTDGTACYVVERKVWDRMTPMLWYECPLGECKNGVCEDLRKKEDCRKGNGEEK

T3: EVA-1 (UniProt P0C8E7 21-114, biotin on the Avi-tag (Bir-A ligase))
T3 sequence (looked up): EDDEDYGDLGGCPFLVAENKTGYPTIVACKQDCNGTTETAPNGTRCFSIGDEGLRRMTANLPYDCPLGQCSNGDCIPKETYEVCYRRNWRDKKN

B1: CCL3 (ligand, human, UniProt P10147 24-92, looked up)
chain: SLAADTPTACCFSYTSRQIPQNFIADYFETSSQCSKPGVIFLTKRSRQVCADPSEEWVQKYVSDLELSA
B2: CCL14 (ligand, human, UniProt Q16627 20-93, looked up)
chain: TKTESSSRGPYHPSECCFTYTTYKIPRQRIMDYYETNSQCSKPGIVFITKRGHSVCTNPSDKWVQDYIKDMKEN
B3: CCL23 (ligand, human, UniProt P55773 22-120, looked up)
chain: RVTKDAETEFMMSKLPLENPVLLDRFHATSADCCISYTPRSIPCSLLESYFETNSECSKPGVIFLTKKGRRFCANPSDKQVQVCMRMLKLDTRIKTRKN
B4: CCL17 (ligand, human, UniProt Q92583 24-94, looked up)
chain: ARGTNVGRECCLEYFKGAIPLRKLKTWYQTSEDCSRDAIVFVTVQGRAICSDPNNKRVKNAVKYLQSLERS
B5: CCL11 (ligand)
chain: not shown
B6: CCL1 (ligand, human, UniProt P22362 24-96, looked up)
chain: KSMQVPFSRCCFSFAEQEIPLRAILCYRNTSSICSNEGLIFKLKRGKEACALDTVGWVQRHRKMLRHCPSKRK
B7: CCL24 (ligand, human, UniProt O00175 27-119, looked up)
chain: VVIPSPCCMFFVSKRIPENRVVSYQLSSRSTCLKAGVIFTTKKGQQFCGDPKQEWVQRYMKNLDAKQKKASPRARAVAVKGPVQRYPGNQTTC
B8: CCL22 (ligand, human, UniProt O00626 25-93, looked up)
chain: GPYGANMEDSVCCRDYVRYRLPLRVVKHFYWTSDSCPRPGVVLLTFRDKEICADPRVPWVKMILNKLSQ
B9: CCL16 (ligand, human, UniProt O15467 24-120, looked up)
chain: QPKVPEWVNTPSTCCLKYYEKVLPRRLVVGYRKALNCHLPAIIFVTKRNREVCTNPNDDWVQEYIKDPNLPLLPTRNLSTVKIITAKNGQPQLLNSQ
B10: CCL5 (ligand, human, UniProt P13501 24-91, looked up)
chain: SPYSSDTTPCCFAYIARPLPRAHIKEYFYTSGKCSNPAVVFVTRKNRQVCANPEKKWVREYINSLEMS
B11: CCL15 (ligand, human, UniProt Q16663 22-113, looked up)
chain: QFTNDAETELMMSKLPLENPVVLNSFHFAADCCTSYISQSIPCSLMKSYFETSSECSKPGVIFLTKKGRQVCAKPSGPGVQDCMKKLKPYSI
B12: CCL8 (ligand, human, UniProt P80075 24-99, looked up)
chain: QPDSVSIPITCCFNVINRKIPIQRLESYTRITNIQCPKEAVIFKTKRGKEVCADPKERWVRDSMKHLDQIFQNLKP
B13: CCL7 (ligand)
chain: not shown
B14: CCL18 (ligand, human, UniProt P55774 21-89, looked up)
chain: AQVGTNKELCCLVYTSWQIPQKFIVDYSETSPQCPKPGVILLTKRGRQICADPNKKWVQKYISDLKLNA
B15: CCL13 (ligand)
chain: not shown
B16: CCL4 (ligand, human, UniProt P13236 24-92, looked up)
chain: APMGSDPPTACCFSYTARKLPRNFVVDYYETSSLCSQPAVVFQTKRSKQVCADPSESWVQEYVYDLELN

One assay addresses T1, EVA-4. Put plainly: SPR.
As usually defined, the Kd is the equilibrium constant for the complex coming apart. Low values mean tighter binding, high ones weaker binding. As to B1, the affinity, expressed as Kd, was 0.2 nM. That is a sub-nanomolar value.

Molecule B2 showed an equilibrium dissociation constant (Kd) of 1.1 nM.

The molecule B3 gave a Kd of 7.4 nM.

For the molecule B4, binding was put at a Kd of 283 nM.

Regarding B5, binding was put at a Kd of 20 nM.

As to B6, the Kd was determined as 376 nM.

Take B7: the Kd stood at 55 nM.

Consider B8, for which the Kd worked out at 8.5 nM.

Molecule B9 displayed a dissociation constant (Kd) of 4.1 nM.

Molecule B10 registered a dissociation constant Kd of 6.1 nM. This Kd and that of the molecule before are within 1.5-fold of each other.

Consider B11, for which binding was characterised by a dissociation constant (Kd) of 240 nM.

Regarding B12, binding was put at a Kd of 0.4 nM.

Regarding B13, binding was characterised by a dissociation constant (Kd) of 0.8 nM.

Turning to B14, the equilibrium dissociation constant (Kd) stood at 0.4 nM.

A further assay concerns the target T2, EVA-P974. Put plainly: SPR. For orientation: SPR reads the build-up and loss of mass on a sensor chip optically.
B1: the Kd is 0.6 nM.

Take B2: the Kd was found to be 1.8 nM. This Kd lies about 3-fold higher than the previous one.

B4 showed a Kd of 23 nM.

The molecule B5 gave an equilibrium dissociation constant (Kd) of 0.3 nM. Against the preceding molecule, the Kd is about 77-fold lower.

B6 showed an equilibrium dissociation constant (Kd) of 15 nM.

For the molecule B15, binding was characterised by a dissociation constant (Kd) of 0.5 nM.

In turn, B8 registered an equilibrium dissociation constant (Kd) of 1.8 nM. This Kd is about 3.6-fold higher than that of the molecule before.

With B9, the equilibrium dissociation constant (Kd) came out at 0.1 nM.

B12 registered a Kd of 0.03 nM. This Kd lies about 3.3-fold lower than the previous one.

In the case of B13, binding was characterised by a dissociation constant (Kd) of 4.4 nM.

Regarding B14, the Kd came to 0.6 nM. This Kd is about 7.3-fold lower than that of the molecule before.

The molecule B16 registered a Kd of 1.8 nM.

For another assay, the target named is T3, EVA-1. Put plainly: SPR.
The molecule B1 came in with a dissociation constant (Kd) of 0.21 nM.

Molecule B2 displayed an equilibrium dissociation constant (Kd) of 92 nM.

Molecule B14 gave a dissociation constant Kd of 192 nM.

For the molecule B16, the equilibrium dissociation constant (Kd) stood at 60.7 nM.

Another assay has as its target T2, EVA-P974. The assay can be described thus: SPR. This is another data set of the same source.
In the case of B9, the equilibrium dissociation constant (Kd) was less than 0.1 nM.

B12 displayed a dissociation constant Kd of less than 0.1 nM.
